Molecular target: huPrP(23-110) (human) (UniProt P04156)
Conditions: FRET: 25 mM Tris-HCl pH 7.5, 30 mM NaCl, 0.2 mM MgCl2, 20 C

Chain of huPrP(23-110) (human) (P04156 23-110): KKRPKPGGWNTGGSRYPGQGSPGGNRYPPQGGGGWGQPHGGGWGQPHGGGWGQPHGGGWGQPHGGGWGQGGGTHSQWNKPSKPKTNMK

With cTAR the Ka was greater than 1e+07 M⁻¹.

Reference: publication PMC3201874
